According to US20240024432A1 (DENALI THERAPEUTICS, published 2024):

T1: cynomolgus transferrin receptor (TfR) ectodomain (ECD) (cynomolgus, UniProt Q5RDH6 121-760 (Pongo abelii entry), biotinylated where captured on streptavidin)
T1 construct: also called cyno TfR; cynoTfR; not shown: C-terminal cleavable His- and Avi-tags
T1 chain: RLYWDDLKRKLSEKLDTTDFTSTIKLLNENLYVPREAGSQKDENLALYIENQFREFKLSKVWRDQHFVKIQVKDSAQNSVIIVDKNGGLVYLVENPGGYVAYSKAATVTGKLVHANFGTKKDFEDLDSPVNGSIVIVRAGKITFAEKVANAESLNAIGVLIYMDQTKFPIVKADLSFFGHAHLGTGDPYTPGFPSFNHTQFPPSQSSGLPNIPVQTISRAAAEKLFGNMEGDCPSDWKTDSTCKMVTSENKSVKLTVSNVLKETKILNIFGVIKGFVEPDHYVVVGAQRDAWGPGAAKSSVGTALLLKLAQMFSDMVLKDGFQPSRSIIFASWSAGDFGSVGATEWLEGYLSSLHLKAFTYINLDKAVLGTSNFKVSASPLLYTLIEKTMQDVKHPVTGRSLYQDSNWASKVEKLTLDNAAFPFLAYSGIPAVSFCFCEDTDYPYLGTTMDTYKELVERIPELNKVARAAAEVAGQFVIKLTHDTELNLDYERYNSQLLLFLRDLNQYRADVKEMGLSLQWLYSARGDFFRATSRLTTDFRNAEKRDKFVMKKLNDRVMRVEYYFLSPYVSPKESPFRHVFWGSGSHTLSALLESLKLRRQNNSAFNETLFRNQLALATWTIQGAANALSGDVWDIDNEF


Experiments:
[1] = molecular target: T1, cynomolgus transferrin receptor (TfR) …; experiment: yeast surface display flow cytometry; yeast-displayed clone stained with 250 nM biotinylated cyno TfR, neutravidin-AF647; median fluorescence intensity
Description: (§1) For each clone, two million cells were washed three times in PBS+0.5% BSA at pH 7.4. […] Cells were stained with nuetravidin-Alexafluor647 (AF647) for 30 minutes at 4° C., then washed twice again. Expression was measured using anti-c-myc antibody with anti-chicken-Alexfluor488 (AF488) secondary antibody. Cells were resuspended, and median fluorescence intensity (MFI) of AF647 and AF488 was measured on a BD FACS CantoII. MFI was calculated for the TfR-binding population for each population and plotted with human TfR, cyno TfR, or control binding (FIG. 44).

[2] = molecular target: T2, human transferrin receptor (TfR) ectodomain (ECD) (human, UniProt P02786 121-760, biotinylated where captured on streptavidin); experiment: yeast surface display flow cytometry; yeast-displayed clone stained with 250 nM biotinylated human TfR, neutravidin-AF647; median fluorescence intensity
T2 construct: also called human TfR; huTfR; not shown: C-terminal cleavable His- and Avi-tags
Description: as §1

| Binder | binding result [1] | binding result [2] |
| --- | --- | --- |
| 3.2-14 (designed binder, also called CH3C.3.2-14) modified Fc polypeptide displayed on yeast (c-Myc tagged): PCPAPELLGGPSVFLFPPKPKDTLMISRTPEVTCVVVDVSHEDPEVKFNWYVDGVEVHNAKTKPREEQYNSTYRVVSVLTVLHQDWLNGKEYKCKVSNKALPAPIEKTISKAKGQPREPQVYTLPPSRDELTKNQVSLTCLVKGFYPSDIAVEWESLGHVWVGVKTTPPVLDSDGSFFLYSKLTVPKSTWQQGWVFSCSVMHEALHNHYTQKSLSLSPGK | binds | binds |
| 3.2-17 (designed binder, also called CH3C.3.2-17) modified Fc polypeptide displayed on yeast (c-Myc tagged): PCPAPELLGGPSVFLFPPKPKDTLMISRTPEVTCVVVDVSHEDPEVKFNWYVDGVEVHNAKTKPREEQYNSTYRVVSVLTVLHQDWLNGKEYKCKVSNKALPAPIEKTISKAKGQPREPQVYTLPPSRDELTKNQVSLTCLVKGFYPSDIAVEWESLGHVWVGTKTTPPVLDSDGSFFLYSKLTVPKSTWQQGWVFSCSVMHEALHNHYTQKSLSLSPGK | binds | binds |
| 3.2-3 (designed binder, also called CH3C.3.2-3) modified Fc polypeptide displayed on yeast (c-Myc tagged): PCPAPELLGGPSVFLFPPKPKDTLMISRTPEVTCVVVDVSHEDPEVKFNWYVDGVEVHNAKTKPREEQYNSTYRVVSVLTVLHQDWLNGKEYKCKVSNKALPAPIEKTISKAKGQPREPQVYTLPPSRDELTKNQVSLTCLVKGFYPSDIAVEWESLGHVWVEQKTTPPVLDSDGSFFLYSKLTVPKSTWQQGWVFSCSVMHEALHNHYTQKSLSLSPGK | binds | binds |
| CH3C.35 (designed binder) modified Fc polypeptide displayed on yeast (c-Myc tagged): PCPAPELLGGPSVFLFPPKPKDTLMISRTPEVTCVVVDVSHEDPEVKFNWYVDGVEVHNAKTKPREEQYNSTYRVVSVLTVLHQDWLNGKEYKCKVSNKALPAPIEKTISKAKGQPREPQVYTLPPSRDELTKNQVSLTCLVKGFYPSDIAVEWESYGTEWSSYKTTPPVLDSDGSFFLYSKLTVTKSEWQQGFVFSCSVMHEALHNHYTQKSLSLSPGK | binds | binds |
| 3.2-1 (designed binder, also called CH3C.3.2-1) modified Fc polypeptide displayed on yeast (c-Myc tagged): PCPAPELLGGPSVFLFPPKPKDTLMISRTPEVTCVVVDVSHEDPEVKFNWYVDGVEVHNAKTKPREEQYNSTYRVVSVLTVLHQDWLNGKEYKCKVSNKALPAPIEKTISKAKGQPREPQVYTLPPSRDELTKNQVSLTCLVKGFYPSDIAVEWESLGHVWVNFKTTPPVLDSDGSFFLYSKLTVPKSTWQQGWVFSCSVMHEALHNHYTQKSLSLSPGK | binds | binds |
| 3.4-19 (designed binder, also called CH3C.3.4-19) modified Fc polypeptide displayed on yeast (c-Myc tagged): PCPAPELLGGPSVFLFPPKPKDTLMISRTPEVTCVVVDVSHEDPEVKFNWYVDGVEVHNAKTKPREEQYNSTYRVVSVLTVLHQDWLNGKEYKCKVSNKALPAPIEKTISKAKGQPREPQVYTLPPSRDELTKNQVSLTCLVKGFYPSDIAVEWESWGHVWSTYKTTPPVLDSDGSFFLYSKLTVPKSNWQQGYVFSCSVMHEALHNHYTQKSLSLSPGK | binds | binds |
| 3.2-19 (designed binder, also called CH3C.3.2-19) modified Fc polypeptide displayed on yeast (c-Myc tagged): PCPAPELLGGPSVFLFPPKPKDTLMISRTPEVTCVVVDVSHEDPEVKFNWYVDGVEVHNAKTKPREEQYNSTYRVVSVLTVLHQDWLNGKEYKCKVSNKALPAPIEKTISKAKGQPREPQVYTLPPSRDELTKNQVSLTCLVKGFYPSDIAVEWESLGHVWVNQKTTPPVLDSDGSFFLYSKLTVPKSTWQQGWVFSCSVMHEALHNHYTQKSLSLSPGK | binds | binds |
| 3.4-26 (designed binder, also called CH3C.3.4-26) modified Fc polypeptide displayed on yeast (c-Myc tagged): PCPAPELLGGPSVFLFPPKPKDTLMISRTPEVTCVVVDVSHEDPEVKFNWYVDGVEVHNAKTKPREEQYNSTYRVVSVLTVLHQDWLNGKEYKCKVSNKALPAPIEKTISKAKGQPREPQVYTLPPSRDELTKNQVSLTCLVKGFYPSDIAVEWESWGTVWGTYKTTPPVLDSDGSFFLYSKLTVPKSNWQQGYVFSCSVMHEALHNHYTQKSLSLSPGK | binds | binds |
| 3.4-1 (designed binder, also called CH3C.3.4-1) modified Fc polypeptide displayed on yeast (c-Myc tagged): PCPAPELLGGPSVFLFPPKPKDTLMISRTPEVTCVVVDVSHEDPEVKFNWYVDGVEVHNAKTKPREEQYNSTYRVVSVLTVLHQDWLNGKEYKCKVSNKALPAPIEKTISKAKGQPREPQVYTLPPSRDELTKNQVSLTCLVKGFYPSDIAVEWESWGFVWSTYKTTPPVLDSDGSFFLYSKLTVPKSNWQQGFVFSCSVMHEALHNHYTQKSLSLSPGK | binds | binds |
| 3.2-24 (designed binder, also called CH3C.3.2-24) modified Fc polypeptide displayed on yeast (c-Myc tagged): PCPAPELLGGPSVFLFPPKPKDTLMISRTPEVTCVVVDVSHEDPEVKFNWYVDGVEVHNAKTKPREEQYNSTYRVVSVLTVLHQDWLNGKEYKCKVSNKALPAPIEKTISKAKGQPREPQVYTLPPSRDELTKNQVSLTCLVKGFYPSDIAVEWESLGHVWVHTKTTPPVLDSDGSFFLYSKLTVPKSTWQQGWVFSCSVMHEALHNHYTQKSLSLSPGK | binds | binds |
| 3.1-3 (designed binder, also called CH3C.3.1-3) modified Fc polypeptide displayed on yeast (c-Myc tagged): PCPAPELLGGPSVFLFPPKPKDTLMISRTPEVTCVVVDVSHEDPEVKFNWYVDGVEVHNAKTKPREEQYNSTYRVVSVLTVLHQDWLNGKEYKCKVSNKALPAPIEKTISKAKGQPREPQVYTLPPSRDELTKNQVSLTCLVKGFYPSDIAVEWESLGHVWVATKTTPPVLDSDGSFFLYSKLTVPKSTWQQGWVFSCSVMHEALHNHYTQKSLSLSPGK | binds | binds |
| 3.2-5 (designed binder, also called CH3C.3.2-5) modified Fc polypeptide displayed on yeast (c-Myc tagged): PCPAPELLGGPSVFLFPPKPKDTLMISRTPEVTCVVVDVSHEDPEVKFNWYVDGVEVHNAKTKPREEQYNSTYRVVSVLTVLHQDWLNGKEYKCKVSNKALPAPIEKTISKAKGQPREPQVYTLPPSRDELTKNQVSLTCLVKGFYPSDIAVEWESLGHVWVDQKTTPPVLDSDGSFFLYSKLTVPKSTWQQGWVFSCSVMHEALHNHYTQKSLSLSPGK | binds | binds |
